Source: patent US20110262366A1
Each block holds one binder with its values, some of them ahead of it. Starred links: 1 amine or outer side, 2 acyl side, 3 side chain; linkers in the order of their positions; H or OH if unused. Positions of bridges follow the written chain, without caps; N, C: chain ends. Primed or numbered codes have the meaning given here. No end group written: not given here. DPPE′ = dipalmitoylphosphatidylethanolamine; Glutaryl = O=C(CCCC(=O)[*:2])[*:1]

Assays:
[1] = biological target: endothelial cell receptor on HAEC (human aortic endothelial cells); test: competition, 50 µM BRU-305 against 2% BRU-114 microbubbles (competitor) on HAEC, static
[2] = biological target: endothelial cell receptor on HAEC (human aortic endothelial cells); test: competition, 100 µM BRU-305 against 2% BRU-114 microbubbles (competitor) on HAEC, static
[3] = biological target: endothelial cell receptor on HAEC (human aortic endothelial cells); test: competition, 200 µM BRU-305 against 2% BRU-114 microbubbles (competitor) on HAEC, static
[4] = biological target: NP-1/Fc (Neuropilin-1/Fc, R&D Systems); test: competition with 250 pM ^125I-VEGF165 on NP-1/Fc-coated plates, 4° C., 2 h
Sequence of NP-1/Fc (Neuropilin-1/Fc, R&D Systems) (Q9QWJ9 22-855): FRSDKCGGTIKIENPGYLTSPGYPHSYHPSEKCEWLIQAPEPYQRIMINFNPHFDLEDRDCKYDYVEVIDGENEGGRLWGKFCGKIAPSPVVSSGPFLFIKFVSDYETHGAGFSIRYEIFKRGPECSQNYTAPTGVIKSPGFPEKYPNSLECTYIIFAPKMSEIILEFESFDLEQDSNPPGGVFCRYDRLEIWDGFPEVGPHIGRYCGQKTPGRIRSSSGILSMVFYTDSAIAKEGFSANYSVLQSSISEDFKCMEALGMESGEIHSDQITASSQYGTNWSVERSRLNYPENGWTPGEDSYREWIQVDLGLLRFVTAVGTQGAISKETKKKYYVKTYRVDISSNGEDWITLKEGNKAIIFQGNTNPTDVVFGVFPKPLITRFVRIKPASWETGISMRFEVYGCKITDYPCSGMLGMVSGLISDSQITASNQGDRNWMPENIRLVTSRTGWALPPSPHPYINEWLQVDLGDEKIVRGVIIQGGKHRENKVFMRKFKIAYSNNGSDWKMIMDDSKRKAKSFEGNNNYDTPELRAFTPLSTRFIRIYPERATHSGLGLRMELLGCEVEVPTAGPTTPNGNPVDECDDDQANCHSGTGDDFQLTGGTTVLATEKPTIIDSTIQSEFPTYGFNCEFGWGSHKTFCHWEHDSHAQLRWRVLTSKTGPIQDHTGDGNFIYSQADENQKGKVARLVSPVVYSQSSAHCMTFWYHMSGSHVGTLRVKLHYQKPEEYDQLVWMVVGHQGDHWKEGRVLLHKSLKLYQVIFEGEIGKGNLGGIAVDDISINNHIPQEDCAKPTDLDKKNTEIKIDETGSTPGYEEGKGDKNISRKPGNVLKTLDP

[5] = biological target: endothelial cell receptor on HAEC (human aortic endothelial cells); test: competition, 5 µM tuftsin against 1% BRU-114 microbubbles (competitor) on HAEC, static
[6] = biological target: endothelial cell receptor on HAEC (human aortic endothelial cells); test: competition, 10 µM tuftsin against 1% BRU-114 microbubbles (competitor) on HAEC, static
[7] = biological target: endothelial cell receptor on HAEC (human aortic endothelial cells); test: competition, 25 µM tuftsin against 1% BRU-114 microbubbles (competitor) on HAEC, static
[8] = biological target: endothelial cell receptor on HAEC (human aortic endothelial cells); test: competition, 50 µM tuftsin against 1% BRU-114 microbubbles (competitor) on HAEC, static
[9] = biological target: endothelial cell receptor on HAEC (human aortic endothelial cells); test: competition, 100 µM tuftsin against 1% BRU-114 microbubbles (competitor) on HAEC, static
[10] = biological target: endothelial cell receptor on HAEC (human aortic endothelial cells); test: competition, 50 µM BRU-306 against 2% BRU-114 microbubbles (competitor) on HAEC, static
[11] = biological target: endothelial cell receptor on HAEC (human aortic endothelial cells); test: competition, 100 µM BRU-306 against 2% BRU-114 microbubbles (competitor) on HAEC, static
[12] = biological target: endothelial cell receptor on HAEC (human aortic endothelial cells); test: competition, 200 µM BRU-306 against 2% BRU-114 microbubbles (competitor) on HAEC, static
[13] = biological target: endothelial cell receptor on HAEC (human aortic endothelial cells); test: TKPPR-beads perfused over HAEC in a parallel plate flow cell, 1.53 dynes/cm^2
[14] = biological target: endothelial cell receptor on HAEC (human aortic endothelial cells); test: conjugated fluorescent beads on confluent HAEC, static 30 min, image analysis (Example 2, experiment 1)
VEGF receptors on HUVECs = test: competition with ^125I-VEGF on HUVECs
[15] = biological target: endothelial cell receptor on HAEC (human aortic endothelial cells); test: microbubbles with 5% DPPE-GTKPPR on HAEC, static
[16] = biological target: KB cells (human epidermoid carcinoma cell line); test: microbubbles with 5% DPPE-GTKPPR on KB cells, static
[17] = biological target: endothelial cell receptor on HAEC (human aortic endothelial cells); test: microbubbles with 1% BRU-114 on HAEC, static, no competitor
[18] = biological target: endothelial cell receptor on HAEC (human aortic endothelial cells); test: microbubbles with 5% BRU-114 on HAEC, static, no competitor
[19] = biological target: endothelial cell receptor on HAEC (human aortic endothelial cells); test: microbubbles with 10% BRU-114 on HAEC, static, no competitor
[20] = biological target: endothelial cell receptor on HAEC (human aortic endothelial cells); test: microbubbles with 5% DPPE-GTKPPR on HAEC, static, after washing
[21] = biological target: endothelial cell receptor on HAEC (human aortic endothelial cells); test: microbubbles with 5% DPPE-GTKPPR on HAEC, static, no competitor
[22] = biological target: endothelial cell receptor on RAEC (rabbit aortic endothelial cells); test: microbubbles with 5% DPPE-GTKPPR on RAEC, static, no competitor
[23] = biological target: endothelial cell receptor on HAEC (human aortic endothelial cells); test: microbubbles with 1% DPPE-GTKPPR on HAEC, static, no competition
[24] = biological target: endothelial cell receptor on HAEC (human aortic endothelial cells); test: microbubbles with 5% DPPE-GTKPPR on HAEC, static, no competition
[25] = biological target: endothelial cell receptor on HAEC (human aortic endothelial cells); test: microbubbles with 5% DPPE-GTKPPR on HAEC, static, no competitor (control)
[26] = biological target: endothelial cell receptor on HAEC (human aortic endothelial cells); test: microbubbles on HAEC, static, manual counting, 5% against 1% DPPE-GTKPPR
[27] = biological target: endothelial cell receptor on HAEC (human aortic endothelial cells); test: microbubbles with 2% BRU-114 on HAEC, static, no competitor (control set to 100)
[28] = biological target: endothelial cell receptor on HAEC (human aortic endothelial cells); test: microbubbles with 1% BRU-114 on HAEC, static, no competitor, average of duplicates
[29] = biological target: endothelial cell receptor on HAEC (human aortic endothelial cells); test: microbubbles with 2% BRU-114 on HAEC, static, no competitor, average of duplicates
[30] = biological target: endothelial cell receptor on HAEC (human aortic endothelial cells); test: microbubbles with 5% DPPE-GTKPPR on HAEC, static; cells treated with 0 ng/mL TNFα for 4 h
[31] = biological target: endothelial cell receptor on HAEC (human aortic endothelial cells); test: microbubbles with 5% DPPE-GTKPPR on HAEC, static; cells treated with 1 ng/mL TNFα for 4 h
[32] = biological target: endothelial cell receptor on HAEC (human aortic endothelial cells); test: microbubbles with 5% DPPE-GTKPPR on HAEC, static; cells treated with 5 ng/mL TNFα for 4 h
[33] = biological target: endothelial cell receptor on HAEC (human aortic endothelial cells); test: microbubbles with 5% DPPE-GTKPPR on HAEC, static; cells treated with 10 ng/mL TNFα for 4 h
[34] = biological target: endothelial cell receptor on HAEC (human aortic endothelial cells); test: microbubbles with 5% DPPE-GTKPPR on HAEC, static, no competitor (same control as in the 16th table)

IC50 [4]: 280 µM
Bubbles Bound in presence of competitor [5]: 1150 bubbles
Bubbles Bound in presence of competitor [6]: 976 bubbles
Bubbles Bound in presence of competitor [7]: 1170 bubbles
Bubbles Bound in presence of competitor [8]: 904 bubbles
Bubbles Bound in presence of competitor [9]: 556 bubbles
Binder: TKPR [Tuftsin (TKPR)]

beads bound at 1.53 dynes/cm^2 [13]: 86 beads
Integrated density of bound beads (arbitrary units) [14]: 230
B1: TKPPR-conjugated fluorescent beads (peptide)
peptide: TKPPR
modifications: also: coupled by EDAC to carboxylate-modified fluorescent FluoSpheres beads, many copies per bead

IC50 (VEGF receptors on HUVECs): 10 µM
B2: TKPPR tetramer BRU-326 (OG-(TKPPR)4) (peptide)
peptide: TKPPR-OH
modifications: not fully specified (N-terminus); printed as OG-(TKPPR)4; also: tetramer: four TKPPR arms on branched scaffold carrying one Oregon Green

Continued, binder first:

Binder: CTKPPRC [Linear CTKPPRC (BRU-305)]
Bubbles Bound % (of control binding) [1]: 97 % of control
Bubbles Bound % (of control binding) [2]: 78 % of control
Bubbles Bound % (of control binding) [3]: 88 % of control

Binder: CTKPPRC (disulfide 1-7 (inferred)) [Cyclic disulfide CTKPPRC (BRU-306)]
Bubbles Bound % (of control binding) [10]: 97 % of control
Bubbles Bound % (of control binding) [11]: 71 % of control
Bubbles Bound % (of control binding) [12]: 99 % of control

Binder: GRGDSP (also: coupled by EDAC to carboxylate-modified fluorescent FluoSpheres beads) [GRGDSP-conjugated fluorescent beads]
Integrated density of bound beads (arbitrary units) [14]: 28.6

Binder: {DPPE′-Glutaryl}-GTKPPR-OH (also: built into phospholipid shell of gas-filled microbubbles) [DPPE-Glu-GTKPPR (BRU-114) in gas-filled microbubbles]
HAEC bubble binding [15]: 1120 bubbles
KB cell bubble binding [16]: 56 bubbles
Bubbles Bound [17]: 1640 bubbles
Bubbles Bound [18]: 2780 bubbles
Bubbles Bound [19]: 1860 bubbles
Bubbles Bound [20]: 7050 bubbles
HAEC bubbles bound [21]: 1420 bubbles
RAEC bubbles bound [22]: 751 bubbles
Bubbles Bound [23]: 555 bubbles
Bubbles Bound [24]: 726 bubbles
Bubbles Bound [25]: 1250 bubbles
% more bubbles bound than with the 1% composition [26]: 31%
Bubbles Bound % (of control binding) [27]: 100 % of control
Bubbles Bound [28]: 737 bubbles
Bubbles Bound [29]: 953 bubbles
Bubbles Bound [30]: 950 bubbles
Bubbles Bound [31]: 1520 bubbles
Bubbles Bound [32]: 1360 bubbles
Bubbles Bound [33]: 1020 bubbles
Bubbles Bound [34]: 1250 bubbles
